Results as given in patent US20210324058A1 (BRIGHAM AND WOMEN S HOSPITAL, published 2021).

What was measured:
[1] = target: T1, recombinant human NEDD9 (neural precursor cell expressed, developmentally down-regulated 9), OriGene TP307200 (human, UniProt Q14511 1-834); assay: microscale thermophoresis, labelled NEDD9 20 nM, P-Selectin titrated
T1 construct: Bought recombinant protein; In microscale thermophoresis it was labelled with the dye NT-647-NHS; also called recombinant NEDD9; purified human NEDD9
T1 sequence (looked up): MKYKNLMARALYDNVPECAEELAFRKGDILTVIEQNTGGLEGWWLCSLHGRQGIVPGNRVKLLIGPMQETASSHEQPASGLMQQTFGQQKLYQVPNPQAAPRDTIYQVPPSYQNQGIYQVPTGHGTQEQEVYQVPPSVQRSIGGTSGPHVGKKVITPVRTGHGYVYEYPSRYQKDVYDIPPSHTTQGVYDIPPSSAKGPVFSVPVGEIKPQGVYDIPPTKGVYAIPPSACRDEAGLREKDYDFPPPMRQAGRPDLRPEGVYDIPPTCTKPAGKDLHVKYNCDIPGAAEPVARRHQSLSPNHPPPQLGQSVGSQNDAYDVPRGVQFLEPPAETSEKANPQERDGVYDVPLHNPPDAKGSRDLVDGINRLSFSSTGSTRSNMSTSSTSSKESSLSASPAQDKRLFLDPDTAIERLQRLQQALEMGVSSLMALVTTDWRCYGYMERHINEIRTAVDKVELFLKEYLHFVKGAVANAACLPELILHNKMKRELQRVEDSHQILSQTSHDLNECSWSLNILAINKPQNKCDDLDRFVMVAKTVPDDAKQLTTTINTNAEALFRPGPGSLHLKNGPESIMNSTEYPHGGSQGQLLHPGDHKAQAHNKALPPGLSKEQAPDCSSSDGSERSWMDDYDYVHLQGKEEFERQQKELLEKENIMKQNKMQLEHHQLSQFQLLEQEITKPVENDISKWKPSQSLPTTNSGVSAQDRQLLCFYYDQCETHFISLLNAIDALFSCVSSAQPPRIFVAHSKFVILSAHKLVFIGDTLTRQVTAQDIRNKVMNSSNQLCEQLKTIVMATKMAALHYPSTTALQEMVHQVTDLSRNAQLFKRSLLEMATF
Description: (§1) FIGS. 4A-E. P-Selectin binds the NEDD9 substrate domain. (A) HPAEC plasma membrane fractions were incubated with recombinant P-Selectin (0.5-1.0 μg), and liquid chromatography-mass spectrometry (LC-MS) was performed on samples following anti-P-Selectin immunoprecipitation. The MS2 spectra for each of the two detected NEDD9 peptide sequences, both within the substrate domain, are shown: K.[…].D (AA: 91-102; SEQ ID NO:9) (m z 677.36735 at retention time […]) (N9-P1) and K.[…].G (AA: 191-211; SEQ ID NO:10) (m/z 808.77731 at retention time […]) (N9-P2) (N=2 replicates for N=2 iterations). Underlining indicates a YxxP sequence. (B) HPAEC plasma membrane fractions were incubated with exogenous P-Selectin and co-immunoprecipitation for P-Selectin and NEDD9 was performed. PM, plasma membrane; UN, untreated. Varying concentrations of P-Selectin (ligand) (2 μM-0.5 nM) were co-incubated with NEDD9 (receptor) (20 nM) and microscale thermophoresis was performed to assess macromolecular interactions between these proteins. […]
(§2) Microscale Thermophoresis. […] In preliminary studies, we determined that Tris buffer containing 10% glycerol, 1% BSA, 0.05% Tween-20 and 5 mM DDT was an optimal buffer to minimize sample aggregation and adsorption in the capillary tube.³⁹ For experiments, NEDD9 (20 nM) was incubated with decreasing concentrations of P-Selectin (2 μM-0.5 nM) and MST scan was performed.

[2] = target: T1, recombinant human NEDD9 (neural …); assay: microscale thermophoresis; dye-labelled NEDD9 20 nM, P-Selectin titrated 2 µM-0.5 nM, N=2
Description: as §1, §2

[3] = target: T2, endogenous human NEDD9 of human pulmonary artery endothelial cells (lysates and plasma membrane fractions) (human, UniProt Q14511 1-834, limits assumed); assay: co-immunoprecipitation from HPAEC plasma membrane fractions incubated with recombinant P-Selectin for 1 hr
T2 construct: Endogenous protein in cell material; also called NEDD9 in HPAECs; NEDD9 p55 fragment
T2 sequence (looked up): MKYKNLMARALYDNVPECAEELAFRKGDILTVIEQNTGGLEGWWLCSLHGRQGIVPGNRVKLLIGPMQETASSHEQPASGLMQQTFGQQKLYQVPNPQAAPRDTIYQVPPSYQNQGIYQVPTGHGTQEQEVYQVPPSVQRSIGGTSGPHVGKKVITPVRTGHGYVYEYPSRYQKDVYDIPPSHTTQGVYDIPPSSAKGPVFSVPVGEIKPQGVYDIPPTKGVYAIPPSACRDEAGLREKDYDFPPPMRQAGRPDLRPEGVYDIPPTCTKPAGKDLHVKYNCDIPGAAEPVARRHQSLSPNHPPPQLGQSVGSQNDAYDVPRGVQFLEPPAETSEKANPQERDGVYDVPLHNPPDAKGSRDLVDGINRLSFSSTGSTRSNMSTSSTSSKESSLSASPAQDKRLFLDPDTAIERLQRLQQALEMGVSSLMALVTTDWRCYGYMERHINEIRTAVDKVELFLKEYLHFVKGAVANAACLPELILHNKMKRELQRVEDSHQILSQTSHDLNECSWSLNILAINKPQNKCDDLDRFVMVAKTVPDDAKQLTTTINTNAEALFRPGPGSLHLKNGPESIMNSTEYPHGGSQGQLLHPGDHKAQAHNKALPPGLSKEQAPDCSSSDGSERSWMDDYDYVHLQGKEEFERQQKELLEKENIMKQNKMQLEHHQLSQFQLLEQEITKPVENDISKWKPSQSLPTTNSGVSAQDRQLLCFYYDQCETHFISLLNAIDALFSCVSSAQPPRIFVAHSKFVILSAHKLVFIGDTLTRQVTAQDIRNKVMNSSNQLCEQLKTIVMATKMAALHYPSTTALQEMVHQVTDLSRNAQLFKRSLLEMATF
Description: Magnetic beads (Bio-Rad SureBeads) were resuspended in 100 μl solution (1 mg at 10 mg/mL), magnetized, and serially washed with 1 mL PBS+0.1% Tween 20 (PBS-T). Primary antibody (10 μg) (Table 2) was added to the resuspended beads in a final volume of 200 μl and rotated at room temperature for 10 min. The beads were then magnetized and serially washed with 1 mL PBS-T before incubation with the antigen-containing HPAEC plasma membrane lysate (250-500 μl) plus recombinant P-Selectin (R&D Systems) (0.5-1.0 μg) for 1 hr at room temperature. In the cell-free immunoprecipitation experiment, the antibody-labeled beads were incubated with recombinant NEDD9 (Origene)³⁹ (5 ng) and recombinant P-Selectin (5 ng) in the presence of IgG₁ control, msAb-N9-P1 (10-20 uM), or msAb-N9-P2 (10-20 μM) for 1 hr at room temperature. […]
Next, LC-MS was performed on in-gel trypsin-digested lysates, and identified only two NEDD9 peptide sequences, both within the substrate domain: K.[…].D (AA: 91-102; SEQ ID NO:9) (N9-P1) and K.[…].G (AA: 191-211; SEQ ID NO:10) (N9-P2) (N=2 replicates for N=2 iterations) (FIG. 4A). […] Plasma membrane fractions from HPAECs were incubated with V-control or exogenous (recombinant) P-Selectin for 1 hr, and P-Selectin-NEDD9 complex formation was assessed by co-immunoprecipitation.

B1: recombinant P-Selectin/CD62P, R&D Systems ADP3-200 (other, human, UniProt P16109 42-771, looked up)
chain: WTYHYSTKAYSWNISRKYCQNRYTDLVAIQNKNEIDYLNKVLPYYSSYYWIGIRKNNKTWTWVGTKKALTNEAENWADNEPNNKRNNEDCVEIYIKSPSAPGKWNDEHCLKKKHALCYTASCQDMSCSKQGECLETIGNYTCSCYPGFYGPECEYVRECGELELPQHVLMNCSHPLGNFSFNSQCSFHCTDGYQVNGPSKLECLASGIWTNKPPQCLAAQCPPLKIPERGNMTCLHSAKAFQHQSSCSFSCEEGFALVGPEVVQCTASGVWTAPAPVCKAVQCQHLEAPSEGTMDCVHPLTAFAYGSSCKFECQPGYRVRGLDMLRCIDSGHWSAPLPTCEAISCEPLESPVHGSMDCSPSLRAFQYDTNCSFRCAEGFMLRGADIVRCDNLGQWTAPAPVCQALQCQDLPVPNEARVNCSHPFGAFRYQSVCSFTCNEGLLLVGASVLQCLATGNWNSVPPECQAIPCTPLLSPQNGTMTCVQPLGSSSYKSTCQFICDEGYSLSGPERLDCTRSGRWTDSPPMCEAIKCPELFAPEQGSLDCSDTRGEFNVGSTCHFSCDNGFKLEGPNNVECTTSGRWSATPPTCKGIASLPTPGVQCPALTTPGQGTMYCRHHPGTFGFNTTCYFGCNAGFTLIGDSTLSCRPSGQWTAVTPACRAVKCSELHVNKPIAMNCSNLWGNFSYGSICSFHCLEGQLLNGSAQTACQENGHWSTTVPTCQAGPLTIQEA
notes: Bought recombinant protein; Species is read from 'Purified human NEDD9 and P-Selectin/CD62P'; also called exogenous P-Selectin
B1 was tested. Which “EC50 (read off the curve)” value [1] did it give?
The value was roughly 60 nM.

What about the Kd [2] of the same binder?
Its Kd is 13.9 nM.

And the “fold increase of NEDD9:P-Selectin complex formation against V-control” value [3]?
The value was 3 fold.
